Assay [1] has as its target T1, human BMP7 (R&D Systems 354-BP/CF) (human, UniProt P18075 293-431).
T1 construct: Bought protein, adsorbed on the ELISA plate
T1 sequence (looked up): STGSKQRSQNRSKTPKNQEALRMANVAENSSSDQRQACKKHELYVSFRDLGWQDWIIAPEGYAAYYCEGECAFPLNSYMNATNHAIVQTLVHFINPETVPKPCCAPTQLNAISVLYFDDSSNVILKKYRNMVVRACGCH
Briefly: antigen presentation ELISA: human BMP7 adsorbed on a Nunc Maxisorp plate, titration of IgG, anti-human IgG-HRP, TMB, absorbance at 450 nm. Here is the method:
(§1) Purified humanized IgGs were screened for binding to human GDF-15 over two further members of the same family, TGFβ1 (R&D Systems 240-B) and BMP7 (R&D Systems 354-BP/CF), using a standard antigen presentation ELISA. Human GDF-15, human TGFβ1 or human BMP7 were adsorbed onto a Nunc Maxisorp™ plate. After removal of excess unbound antigen, a titration of test IgG was added to the plate. After a 1-hour incubation, the unbound IgG was removed. The extent of IgG binding was determined by addition of an anti-human IgG antibody conjugated to the horseradish peroxidase (HRP) enzyme and measuring the optical absorbance at 450 nm of the product of its reaction with the substrate TMB.

For assay [2], the target named is T2, human TGFβ1 (R&D Systems 240-B) (human, UniProt P01137 279-390).
T2 construct: Bought protein, adsorbed on the ELISA plate
Description: antigen presentation ELISA: human TGFβ1 adsorbed on a Nunc Maxisorp plate, titration of IgG, anti-human IgG-HRP, TMB, absorbance at 450 nm. Here is the method:
as §1
For orientation: An ELISA detects its analyte on a solid surface through an enzyme-linked reagent.

In another assay the target is T3, mature human GDF-15 (human, UniProt Q99988 197-308).
T3 construct: Homodimer; also called hGDF-15; recombinant hu-GDF15
T3 sequence: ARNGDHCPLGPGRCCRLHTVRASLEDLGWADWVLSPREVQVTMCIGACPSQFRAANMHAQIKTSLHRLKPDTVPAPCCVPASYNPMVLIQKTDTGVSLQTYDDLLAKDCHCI
Briefly: HTRF epitope competition; competitor DyLight 650 labelled Antibody A; Europium labelled human GDF-15. An excerpt: Antibodies from the immunizations with human GDF-15, in the form of crude supernatants from the immunization or in the form of purified IgGs, were chosen on the basis that they bind and compete with an epitope recognized by a control anti-GDF-15 antibody “Antibody A”. A biochemical epitope competition format was applied using an HTRF epitope competition assay that measured the binding of DyLight 650 labelled Antibody A to Europium labelled human GDF-15 (Prospec). In the absence of Antibody A binding, there is no detectable FRET fluorescence. When Antibody A binds to GDF-15, the resulting physical proximity between the secondary reagent donor/acceptor pair results in FRET. Competition with an antibody that recognizes the same or similar epitope will result in a dose dependent reduction of the FRET signal. FRET was measured ratiometrically [665 nm (acceptor)/620 nm (donor)] on an Envision plate reader, and IC₅₀ values were determined by curve fitting the data to a four parameter logistic equation using PRISM 6® software (Graphpad).
For orientation: TR-FRET usually uses a lanthanide donor and a delayed reading to cut background.

A further assay deals with T4, mouse GDF-15 (mouse, UniProt Q9Z0J7 189-303).
T4 construct: also called mGDF-15
T4 sequence: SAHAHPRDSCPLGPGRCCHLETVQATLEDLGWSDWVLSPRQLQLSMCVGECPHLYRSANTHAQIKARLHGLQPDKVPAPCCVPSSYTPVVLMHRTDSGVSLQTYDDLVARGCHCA
Briefly: HTRF binding assay, biotinylated antigen, titration of antibody. An excerpt: (§2) Supernatants generated from the immunizations with human GDF-15 and purified IgGs were screened to identify IgGs with specific binding to human, cynomolgus, or mouse GDF-15. The HTRF (Homogeneous Time Resolved Fluorescence) assay is based on detection of a measurable FRET signal upon binding of a titration of test antibody to biotinylated human H202D GDF-15 variant, cynomolgus GDF-15 and mouse GDF-15. Europium cryptate (EuK) labelled Streptavidin and anti-human IgG XL665 (Cis Bio) were used as secondary detection reagents serving as energy donor and acceptor respectively. In the absence of test antibody binding, there is no detectable FRET fluorescence. When test antibody binds to GDF-15, the resulting physical proximity between the secondary reagent donor/acceptor pair results in FRET. FRET was measured ratiometrically [665 nm (acceptor)/620 nm (donor)] on an Envision plate reader, and data plotted using PRISM 6® software (Graphpad).

The target of assay [3] is T5, biotinylated cynomolgus GDF-15 (cynomolgus, UniProt G7PWZ3 197-308, biotinylated, sites not stated).
T5 construct: also called Cyno GDF-15
T5 sequence: T3 sequence with H6R, R21H, A54E, T63M, S64N, I112V
The description is as above.
From the text: as §2

In assay [4] the target is T6, biotinylated human H202D GDF-15 variant (human, UniProt Q99988 197-308, biotinylated, sites not stated).
T6 construct: also called Human GDF-15 H202D
T6 chain: T3 sequence with H6D
Described as above.
From the text: as §2

Substitutions are numbered along the chain they refer to.

T2 sequence (P01137 279-390 limits assumed): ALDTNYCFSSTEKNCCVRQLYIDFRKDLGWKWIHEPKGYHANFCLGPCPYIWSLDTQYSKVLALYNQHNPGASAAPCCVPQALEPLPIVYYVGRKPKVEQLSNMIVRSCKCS

B1: AB1170242 (antibody, IgG1, V domains shown)
VH: QVQLQESGPGLLKPSQTLSLTCTVSGFSLSTYGMGVGWIRQPAGKGLEWLANIWWNDDKYYNSALKSRLTISKDTSKNQVSLKLSSVTAADTAVYYCAQEVYGWFAYWGQGTLVTVSS
VL: DIQMTQSPSTLSASVGDRVTITCKASQNVGTNVAWYQQKPGQPPKALIYSASYRYSGVPDRFSGSGSGTDFTLTISSLQAEDVAVYYCQQYNSYPLTFGQGTKLEIK
notes: Humanized IgG1 TM; not shown: human immunoglobulin kappa light chain constant domain
B1: the binding result in assay [1] and in assay [2] was “no binding (tested: 5 µg/mL)” each time. Also, the IC50 (in general, the concentration at which inhibition is half-maximal) in the assay with mature human GDF-15 came out at 0.288 nM.

B2: AB1170249 (antibody, IgG1, V domains shown)
VH: B1 VH with A43L, E100M, V101A, G103S
VL: B1 VL with T10F, V29M, G30D, L96F
notes: as for B1
For the molecule B2, the binding result in assay [1] and in assay [2] was “no binding (tested: 5 µg/mL)” throughout. The IC50 with mature human GDF-15 stood at 0.406 nM.

B3: AB1170043 (antibody, V domains shown)
VH: QVTLKESGPGILQSSQTLSLTCSFSGFSLITSGLGVSWIRQPSGKGLEWLAHIYWDDDKRYNPSLKSRLTISKDTSRNQVFLKITSVDTADTATYYCARGGYDGYYDYWGQGTTLTVSS
VL: DVVMTQTPLSLPVSLGDQASISCRSSQSIVHSNGNTNLEWYLQKPGQSPKLLIYKVSNRLSGVPDRFSGSGSGTDFTLKISRVEAEDLGVYYCFQGSHVRTFGGGTKLEIK
In the case of B3, the binding result (in the assay with mouse GDF-15; in assay [3]; in assay [4]) was “binds” each time. For the same molecule, in the assay with mature human GDF-15, the IC50 worked out at 1.95 nM.

B4: AB1170086 (antibody, V domains shown)
VH: B3 VH with I30S, L34M, K66E, A90T
VL: B3 VL with F76S
Regarding B4, the binding result (in the assay with mouse GDF-15; in assay [3]; in assay [4]) was “binds” throughout. The molecule also came in with an IC50 in the assay with mature human GDF-15 of 1.11 nM.

B5: AB1170148 (antibody, V domains shown)
VH: QVQLQQPGAELVRPGTSVKLSCKASGYTFTSYWMHWVKQRPRQGLEWIGLIDPSDNYTNYNQNFKGKATLTVDTSSSTAYMQLGSLTSEDSAVYYCASYDGYSTPSAMDYWGQGTSVTVSS
VL: QIVLSQSPAILSASPGEKVTMTCRASSSVNYMHWYQQKPGSSPKPWIYATSNLASGVPARFSGSGSGTSYSLIISRVEAEDAAAYYCQQWSSYPPTFGGGTKLEIK
Turning to B5, the binding result (in the assay with mouse GDF-15; in assay [3]; in assay [4]) was “binds” throughout. This molecule registered an IC50 with mature human GDF-15 of 68.3 nM.

B6: AB1170073 (antibody, V domains shown)
VH: QVTLKESGPGILQPSQTLSLTCSFSGFSLSTFGMGVGWIRQPSGKGLEWLAHIWWDDDKYYNPALKSRLTISKDTSKNQVFLKIANVDTADTATYYCARIAYDGYLDYWGQGTTLTVSS
VL: DIVMTQSQKFMSTSVGDRVSVTCKASQNVGTDVAWYQQKPGQSPKSLIYSASYRYSGVPDRFTGSGSGTDFTLTISNVQSEDLAEYFCQQYNSYPYTFGGGTKLEIK
For B6, the binding result (with mouse GDF-15; in assay [3]; in assay [4]) was “binds” throughout. The molecule further gave an IC50 with mature human GDF-15 of 2.11 nM.

B7: AB1170241 (antibody, IgG1, V domains shown)
VH: QVQLVQSGSELKKPGASVKVSCKASGYTFTDYNMDWIRQSPGKGLEWIGDINPNQGGTFYNQKFKDRATLTVDKSTSTAYMELRSLRSDDTAVYYCAREEKLYFGLMDYWGQGTTVTVSS
VL: DIQMTQSPSSLSASVGDRVTITCRASENIYSYLAWYQQKPGKAPKLLVYNAKTLAEGVPSRFSGSGSGIDFTLTISSLQPEDFATYYCQHQYGSPPTFGQGTKLEIK
notes: Humanized IgG1 TM; Made from AB1170243 by changing NNG to NQG in heavy chain CDR2; not shown: human immunoglobulin kappa light chain constant domain
As for B7, the binding result in assay [1] and in assay [2] was “no binding (tested: 5 µg/mL)” in each case. In the assay with mature human GDF-15, the IC50 came to 0.212 nM.

B8: AB1170243 (antibody, IgG1, V domains shown)
VH: B7 VH with Q55N
VL: B7 VL
notes: Humanized IgG1 TM; also called human anti-human GDF-15 IgG; not shown: human immunoglobulin kappa light chain constant domain
With B8, the binding result in assay [1] and in assay [2] was “no binding (tested: 5 µg/mL)” each time. In addition, the IC50 with mature human GDF-15 is 0.155 nM.

B9: AB1170047 (antibody, V domains shown)
VH: QVQLQQSGPELVKPGASVKLSCKASGYTFTSYDINWVKQRPGQGLEWIGWIYPRDGISKYNEKFKGKATLTVDTSSSTAYMELHSLTSEDSAVYFCAGTYDPAYFDYWGQGTTLTVSS
VL: DIVLTQSPATLSVTPGDRVSLSCRASQSISYYLHWYQQKSHESPRLLIKYASQSISGIPSRFSGSGSGTDFTLSINSVETEDFGMYFCQQSNSWPYTFGGGTKLEIK
With B9, the binding result (with mouse GDF-15; in assay [3]; in assay [4]) was “binds” throughout. Besides, the IC50 in the assay with mature human GDF-15 was determined as 1.36 nM.

B10: AB1170069 (antibody, V domains shown)
VH: B9 VH with K65E, Y100S
VL: B9 VL
For the molecule B10, the binding result (in the assay with mouse GDF-15; in assay [3]; in assay [4]) was “binds” each time. Further, the IC50 with mature human GDF-15 amounted to 0.759 nM.

B11: AB1170070 (antibody, V domains shown)
VH: EVQLQQSGPELVKPGASVKIPCKASGYTFTDYNMDWVKQSHGKSLEWIGDINPYNGITIYNQKFKGKATLTVDKSSSTAYMELRSLTSEDTAVYYCAREEKLGTSFDYWGQGTTLTVSS
VL: DIQMTQSPASLSASVGETVTITCRASENIYSNLAWYQQKQGKSPQLLVYAATNLADGVPSRFSGSGSGTQFSLKINSLQPEDFGSYYCQHFYGTPWTFGGGTKLEIK
Turning to B11, the binding result (with mouse GDF-15; in assay [3]; in assay [4]) was “binds” throughout. Also, in the assay with mature human GDF-15, the half-inhibitory concentration (IC50) was 6.83 nM.

B12: AB1170006 (antibody, V domains shown)
VH: B11 VH with Y54N, I57V, Y94F, K101L, L102T, T104N, S105A, F106M, T114S, L115V
VL: B11 VL with A13V, N32H, F71Y, P80S, Y92W
As for B12, the binding result (in the assay with mouse GDF-15; in assay [3]; in assay [4]) was “binds” in each case. The molecule also came in with an IC50 with mature human GDF-15 of 97.1 nM.
